The source of these data is publication doi:10.1101/324400 (bioRxiv, 2018).

Experiment [1] concerns the target Eco RNAP β' subunit (in the opsEC) (E. coli, UniProt P0A8T7). As to the kind of experiment: cryo-EM structure.
The target in experiment [2] is Eco RNAP β subunit (in the opsEC) (E. coli, UniProt P0A8V2). Briefly: cryo-EM structure.
Eco RNAP β subunit (in the opsEC), sequence (P0A8V2 whole entry): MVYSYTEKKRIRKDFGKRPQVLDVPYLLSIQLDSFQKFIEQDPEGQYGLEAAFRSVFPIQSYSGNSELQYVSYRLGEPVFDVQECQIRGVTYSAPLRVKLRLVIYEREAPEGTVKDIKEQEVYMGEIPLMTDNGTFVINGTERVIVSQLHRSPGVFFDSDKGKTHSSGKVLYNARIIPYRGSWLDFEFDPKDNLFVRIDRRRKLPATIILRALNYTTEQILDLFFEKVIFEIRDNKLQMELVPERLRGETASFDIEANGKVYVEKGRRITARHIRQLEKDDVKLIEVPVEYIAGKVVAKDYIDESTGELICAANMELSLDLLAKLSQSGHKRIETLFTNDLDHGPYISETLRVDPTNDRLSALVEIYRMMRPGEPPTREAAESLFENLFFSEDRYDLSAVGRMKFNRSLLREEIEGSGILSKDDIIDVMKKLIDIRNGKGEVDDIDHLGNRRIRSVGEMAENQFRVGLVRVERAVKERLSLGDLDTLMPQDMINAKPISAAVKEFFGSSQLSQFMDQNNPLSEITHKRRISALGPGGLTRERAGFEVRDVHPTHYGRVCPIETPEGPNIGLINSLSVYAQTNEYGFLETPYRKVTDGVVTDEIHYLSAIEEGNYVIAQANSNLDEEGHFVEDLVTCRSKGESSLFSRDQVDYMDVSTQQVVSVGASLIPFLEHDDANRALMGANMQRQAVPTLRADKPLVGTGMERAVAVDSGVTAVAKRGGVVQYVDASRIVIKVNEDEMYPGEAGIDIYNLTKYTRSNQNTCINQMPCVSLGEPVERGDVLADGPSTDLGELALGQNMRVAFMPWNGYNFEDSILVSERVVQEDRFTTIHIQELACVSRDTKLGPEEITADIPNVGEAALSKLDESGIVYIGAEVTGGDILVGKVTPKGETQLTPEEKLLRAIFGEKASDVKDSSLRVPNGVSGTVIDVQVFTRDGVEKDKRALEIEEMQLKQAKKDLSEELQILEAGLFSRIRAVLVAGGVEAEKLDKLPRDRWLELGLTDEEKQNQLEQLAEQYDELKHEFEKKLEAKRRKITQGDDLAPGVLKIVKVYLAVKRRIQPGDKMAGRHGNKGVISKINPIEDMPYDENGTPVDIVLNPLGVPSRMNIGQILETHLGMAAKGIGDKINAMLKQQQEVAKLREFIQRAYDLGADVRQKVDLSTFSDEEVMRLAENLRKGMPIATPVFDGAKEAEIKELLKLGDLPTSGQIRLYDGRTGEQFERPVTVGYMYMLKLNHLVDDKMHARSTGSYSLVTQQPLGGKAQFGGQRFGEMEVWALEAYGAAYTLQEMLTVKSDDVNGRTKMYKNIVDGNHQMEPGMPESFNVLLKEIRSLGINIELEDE

Eco RNAP β' subunit (in the opsEC), sequence (P0A8T7 whole entry): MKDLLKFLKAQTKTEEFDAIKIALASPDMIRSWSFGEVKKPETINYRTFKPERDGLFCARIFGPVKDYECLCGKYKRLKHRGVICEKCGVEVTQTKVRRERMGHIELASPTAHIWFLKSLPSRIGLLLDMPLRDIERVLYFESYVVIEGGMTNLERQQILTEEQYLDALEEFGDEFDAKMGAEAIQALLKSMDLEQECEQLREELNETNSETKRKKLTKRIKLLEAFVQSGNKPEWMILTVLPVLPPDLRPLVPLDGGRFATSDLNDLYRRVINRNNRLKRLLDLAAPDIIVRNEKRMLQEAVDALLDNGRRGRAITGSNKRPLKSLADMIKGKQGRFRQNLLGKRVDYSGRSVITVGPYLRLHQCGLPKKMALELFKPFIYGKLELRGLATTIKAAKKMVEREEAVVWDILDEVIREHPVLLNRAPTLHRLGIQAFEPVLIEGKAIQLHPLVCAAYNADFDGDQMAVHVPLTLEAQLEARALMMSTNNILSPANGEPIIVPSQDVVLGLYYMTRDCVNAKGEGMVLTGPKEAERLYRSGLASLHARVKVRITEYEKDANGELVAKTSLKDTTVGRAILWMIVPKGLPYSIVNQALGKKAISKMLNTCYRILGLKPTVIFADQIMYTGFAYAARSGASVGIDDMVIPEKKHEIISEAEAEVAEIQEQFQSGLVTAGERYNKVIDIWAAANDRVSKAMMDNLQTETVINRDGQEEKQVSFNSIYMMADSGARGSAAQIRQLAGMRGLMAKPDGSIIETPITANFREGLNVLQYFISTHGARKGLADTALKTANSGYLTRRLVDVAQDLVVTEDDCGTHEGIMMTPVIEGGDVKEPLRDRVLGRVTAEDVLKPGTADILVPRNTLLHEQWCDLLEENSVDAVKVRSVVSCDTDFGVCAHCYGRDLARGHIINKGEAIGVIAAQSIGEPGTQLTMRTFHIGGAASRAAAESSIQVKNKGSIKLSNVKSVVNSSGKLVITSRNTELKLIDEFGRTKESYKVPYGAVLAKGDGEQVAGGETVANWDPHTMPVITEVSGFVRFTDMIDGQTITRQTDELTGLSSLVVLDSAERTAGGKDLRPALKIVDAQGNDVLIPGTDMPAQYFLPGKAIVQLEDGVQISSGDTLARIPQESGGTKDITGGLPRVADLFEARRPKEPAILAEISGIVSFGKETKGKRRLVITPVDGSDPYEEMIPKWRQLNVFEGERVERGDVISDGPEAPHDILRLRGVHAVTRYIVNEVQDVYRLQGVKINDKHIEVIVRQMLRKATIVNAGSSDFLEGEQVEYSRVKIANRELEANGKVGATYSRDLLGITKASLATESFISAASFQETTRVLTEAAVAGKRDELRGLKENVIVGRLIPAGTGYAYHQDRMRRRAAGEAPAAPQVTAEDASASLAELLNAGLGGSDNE

B1: wild-type Eco RfaH, full length (natural protein)
chain: MQSWYLLYCKRGQLQRAQEHLERQAVNCLAPMITLEKIVRGKRTAVSEPLFPNYLFVEFDPEVIHTTTINATRGVSHFVRFGASPAIVPSAVIHQLSVYKPKDIVDPATPYPGDKVIITEGAFEGFQAIFTEPDGEARSMLLLNLINKEIKHSVKNTEFRKL
Take B1: the binding result in experiment [1] and in experiment [2] was “binds” in each case.
